From patent US20170326246A1 (INSTITUT PASTEUR, published 2017)
*1 amine or outer side, *2 acyl side, *3 side chain or, on linkers, in order; H or OH if unused. [ ]: non-standard residue; d: D form. U1 = 4-cyclohexylmethoxy-L-phenylalanine, O=C([C@H](Cc1ccc(OCC2CCCCC2)cc1)N[*:1])[*:2]; Bip = N[C@@H](Cc1ccc(-c2ccccc2)cc1)C(=O)O; Tpa = thiopropionic acid

Experiments:
Test in all cases: cell-based or functional assay
[1] = biological target: gp120 of viral strain IIIB (HIV, strain IIIB)
gp120 of viral strain MN = gp120 of viral strain MN (HIV, strain MN, UniProt P05877 32-513)
[2] = biological target: gp120 of viral strain SHIV162p3 (SHIV162p3)
[3] = biological target: gp120 of viral strain SF162 (HIV, strain SF162, UniProt P19550 32-502)
[4] = biological target: gp120 of viral strain VI829 (HIV, strain VI829)
[5] = biological target: gp120 of viral strain VI820 (HIV, strain VI820)
[6] = biological target: gp120 of viral strain VI1888 (CRF01) (HIV, strain VI1888 (CRF01))
[7] = biological target: gp120 of viral strain MP568 (CRF02) (HIV, strain MP568 (CRF02))
[8] = biological target: gp120 of viral strain VI824 (HIV, strain VI824)
[9] = biological target: gp120 of viral strain Ca10-3 (CRF01) (HIV, strain Ca10-3 (CRF01))
[10] = biological target: gp120 of viral strain p246F10 (HIV, strain p246F10)
[11] = biological target: gp120 of viral strain pREJO.c/2864 cl2 (HIV, strain pREJO.c/2864 cl2)
[12] = biological target: gp120 of viral strain Bal (HIV, strain Bal)

Row | Binder | EC50 (antiviral activity, TZM-bl cells, luciferase) [1] | EC50 (antiviral activity, TZM-bl cells, luciferase) (gp120 of viral strain MN) | EC50 (antiviral activity, TZM-bl cells, luciferase) [2] | EC50 (antiviral activity, TZM-bl cells, luciferase) [3] | EC50 (antiviral activity, TZM-bl cells, luciferase) [4] | EC50 (antiviral activity, TZM-bl cells, luciferase) [5] | EC50 (antiviral activity, TZM-bl cells, luciferase) [6] | EC50 (antiviral activity, TZM-bl cells, luciferase) [7] | EC50 (antiviral activity, TZM-bl cells, luciferase) [8] | EC50 (antiviral activity, TZM-bl cells, luciferase) [9] | EC50 (antiviral activity, TZM-bl cells, luciferase) [10] | EC50 (antiviral activity, TZM-bl cells, luciferase) [11] | EC50 (antiviral activity, TZM-bl cells, luciferase) [12]
1 | mCD4.1-PS1 (N-terminal gamma-aminobutyric acid (gammaAbu) acylated with 3-thiopropionyl (from SATP); all six Tyr are sulfotyrosine (YSO3); N-terminal Tpa (thiopropionic acid); Bip at position 23; C-terminal …; Lys5 N-epsilon carries the PEO2-maleimide linker bound to the thiol of the PS1 chain) peptide 1: NLHKCQLRCSSLGLLGRCAGSFCACV peptide 2: SYDYSYDYSYDYS | 0.013 nM | 0.08 nM | 36 nM | 0.11 nM | 16 nM | 25 nM | 1100 nM | 310 nM | 40 nM | 0.57 nM | 723 nM | 0.66 nM | 0.54 nM
2 | mCD4.3-PS1 (not fully specified; N-terminal gamma-aminobutyric acid (gammaAbu) acylated with 3-thiopropionyl (from SATP); all six Tyr are sulfotyrosine (YSO3); N-terminal Tpa; D-proline at position 21; U1 (4-cyclohexylmethoxy-L-phenylalanine) at position 23; C-terminal amide; Lys5 N-epsilon carries the PEO2-maleimide linker bound to the thiol of the PS1 chain) peptide 1: NLHKCQLRCRSLGLLGRCAPTFCACV peptide 2: SYDYSYDYSYDYS | 0.0025 nM | 0.026 nM | 1.4 nM | 0.008 nM | 3.6 nM | 0.024 nM | 1210 nM | 4.2 nM | 0.7 nM | 0.076 nM | 33 nM | 0.28 nM | 0.031 nM
3 | Tpa-NLHKCQLRCRSLGLLGRCA[dP]T[U1]CACV-NH2 (disulfide (positions not given here)) [mCD4.3] | 0.16 nM | 0.37 nM | 29 nM | 0.66 nM | 221 nM | 4.2 nM | 8020 nM | 204 nM | 39 nM | 3.1 nM | 510 nM | 46 nM | 2.3 nM
4 | mCD4.2-PS1 (not fully specified; N-terminal gamma-aminobutyric acid (gammaAbu) acylated with 3-thiopropionyl (from SATP); all six Tyr are sulfotyrosine (YSO3); N-terminal Tpa; D-proline at position 21; U1 (4-cyclohexylmethoxy-L-phenylalanine) at position 23; C-terminal amide; Lys5 N-epsilon carries the PEO2-maleimide linker bound to the thiol of the PS1 chain) peptide 1: NLHKCQLRCSSLGLLGRCAPTFCACV peptide 2: SYDYSYDYSYDYS | 0.007 nM | 0.046 nM | 2.2 nM | 0.01 nM | 4 nM | 0.031 nM | 1060 nM | 4.9 nM | 0.68 nM | 0.12 nM | 58 nM | 0.27 nM | 0.034 nM
5 | M48U1-PS1 (not fully specified; N-terminal gamma-aminobutyric acid (gammaAbu) acylated with 3-thiopropionyl (from SATP); all six Tyr are sulfotyrosine (YSO3); N-terminal Tpa; D-proline at position 21; U1 (4-cyclohexylmethoxy-L-phenylalanine) at position 23; C-terminal amide; Lys11 N-epsilon carries the PEO2-maleimide linker bound to the thiol of the PS1 chain) peptide 1: NLHFCQLRCKSLGLLGRCAPTFCACV peptide 2: SYDYSYDYSYDYS | 0.02 nM | 0.12 nM | 3.4 nM | 0.05 nM | 1.1 nM | 0.1 nM | 1070 nM | 15 nM | 2.2 nM | 0.6 nM | – | – | 0.13 nM
6 | Tpa-NLHKCQLRCSSLGLLGRCAGS[Bip]CACV-NH2 (disulfide (positions not given here); also: three disulphide bridges, pairing not given here) [mCD4.1] | 29 nM | 20 nM | 5370 nM | 130 nM | > 10000 nM | 1690 nM | > 1000 nM | 7930 nM | 3180 nM | 96 nM | > 10000 nM | 108 nM | 236 nM
7 | Tpa-NLHFCQLRCKSLGLLGRCA[dP]T[U1]CACV-NH2 (disulfide (positions not given here)) [M48U1] | 0.08 nM | 0.25 nM | 24 nM | 1 nM | 59 nM | 3.8 nM | 8420 nM | 129 nM | 29 nM | 2.7 nM | – | – | 0.96 nM
8 | Tpa-NLHKCQLRCSSLGLLGRCA[dP]T[U1]CACV-NH2 (disulfide (positions not given here)) [mCD4.2] | 0.22 nM | 0.6 nM | 69 nM | 1.24 nM | 512 nM | 6.1 nM | 9760 nM | 155 nM | 56 nM | 4.73 nM | 718 nM | 76 nM | 2 nM
